T1: rabbit PAI-1 (rabbit)
T1 chain: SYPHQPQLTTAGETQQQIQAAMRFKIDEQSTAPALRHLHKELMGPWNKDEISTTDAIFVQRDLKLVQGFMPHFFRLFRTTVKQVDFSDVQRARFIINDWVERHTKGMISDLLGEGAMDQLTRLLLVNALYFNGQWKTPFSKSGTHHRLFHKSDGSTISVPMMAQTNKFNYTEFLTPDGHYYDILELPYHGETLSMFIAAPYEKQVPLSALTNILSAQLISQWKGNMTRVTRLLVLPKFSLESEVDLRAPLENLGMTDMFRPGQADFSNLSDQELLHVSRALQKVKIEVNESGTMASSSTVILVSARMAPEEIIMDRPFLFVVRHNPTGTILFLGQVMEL

B1: mouse PAI-1 (other)
chain: ALPLRESHTAHQATDFGVKVFQQVVQASKDRNVVFSPYGVSSVLAMLQMTTAGKTRRQIQDAMGFKVNEKGTAHALRQLSKELMGPWNKNEISTADAIFVQRDLELVQGFMPHFFKLFQTMVKQVDFSEVERARFIINDWVERHTKGMINDLLAKGAVDELTRLVLVNALYFSGQWKTPFLEASTHQRLFHKSDGSTVSVPMMAQSNKFNYTEFTTPDGLEYDVVELPYQGDTLSMFIAAPFEKDVHLSALTNILDAELIRQWKGNMTRLPRLLILPKFSLETEVDLRGPLEKLGMPDMFSATLADFTSLSDQEQLSVAQALQKVRIEVNESGTVASSSTAFVISARMAPTEMVIDRSFLFVVRHNPTETILFMGQVMES
notes: bought (US Biological); also called murine PAI-1
B2: rat PAI-1 (other)
chain: SPLPESHTAQQATNFGVKVFQHVVQASKDRNVVFSPYGVSSVLAMLQLTTAGKTRQQIQDAMGFNISERGTAPALRKLSKELMGSWNKNEISTADAIFVQRDLELVQGFMPHFFKLFRTTVKQVDFSEVERARFIINDWVERHTKGMISDLLAKGAVNELTRLVLVNALYFNGQWKTPFLEASTHQRLFHKSDGSTISVPMMAQNNKFNYTEFTTPDGHEYDILELPYHGETLSMFIAAPFEKDVPLSAITNILDAELIRQWKSNMTRLPRLLILPKFSLETEVDLRGPLEKLGMTDIFSSTQADFTSLSDQEQLSVAQALQKVKIEVNESGTVASSSTAILVSARMAPTEMVLDRSFLFVVRHNPTETILFMGQLMEP
notes: bought (US Biological)

Legend:
[1] = target: B2; test: cell-based or functional assay
[2] = target: T2, human PAI-1, active, wild-type, non-glycosylated (E. coli-derived) (human, UniProt P05121 24-402); test: cell-based or functional assay
[3] = target: B1; test: cell-based or functional assay
[4] = target: B2; test: cell-based or functional assay; remark: listed apart in the source
[5] = target: T3, cynomolgus PAI-1 (cynomolgus, UniProt P05121 24-402 (human entry), limits assumed); test: cell-based or functional assay
[6] = target: T2, human PAI-1, active, wild-type, …; test: cell-based or functional assay; remark: listed apart in the source
[7] = target: B1; test: cell-based or functional assay; remark: listed apart in the source
[8] = target: B2; test: competition ELISA (DELFIA), IgG coated, competitor titrated against biotinylated active human PAI-1
[9] = target: B1; test: as above
[10] = target: T1, rabbit PAI-1; test: as above
[11] = target: T4, latent human PAI-1 (human, UniProt P05121 24-402); test: as above
T4 construct: also called latent PAI-1

[12] = target: glycosylated active human PAI-1 produced by CHO cells (human, UniProt P05121 24-402, N-glycosylated (CHO-produced)); test: cell-based or functional assay
[13] = target: T3, cynomolgus PAI-1; test: cell-based or functional assay; remark: listed apart in the source
[14] = target: T2, human PAI-1, active, wild-type, …; test: cell-based or functional assay; remark: listed apart in the source
[15] = target: B1; test: cell-based or functional assay; remark: listed apart in the source
[16] = target: PICK167_A01 IgG1; test: competition ELISA (DELFIA): PICK167_A01 IgG1 coated on the plate, binding of biotinylated human PAI-1 detected with streptavidin-Eu3+ in the presence of a titration of the unlabelled test antigen (the varied molecule)
[17] = target: T5, PICK167_A01-fgl IgG1 (CAT-1001); test: competition ELISA (DELFIA): PICK167_A01-fgl IgG1 (CAT-1001) coated on the plate, binding of biotinylated human PAI-1 detected with streptavidin-Eu3+ in the presence of a titration of the unlabelled test antigen (the varied molecule)
T5 construct: fully germlined variant, made as an IgG1 only; also called PICK67A01-fgl

IC50 HT-1080 Exo PAI-1 [1] [nM] | IC50 HT-1080 Exo PAI-1 [2] [nM] | IC50 HT-1080 Exo PAI-1 [3] [nM] | IC50 chromogenic [4] [nM] | IC50 ratio rat/human [4] | IC50 chromogenic [5] [nM] | IC50 ratio cyno/human [5] | IC50 chromogenic [6] [nM] | IC50 chromogenic [7] [nM] | IC50 ratio mouse/human [7] | IC50 ratio rat/wt [8] | IC50 ratio mouse/wt [9] | IC50 ratio rabbit/wt [10] | IC50 ratio latent/wt [11] | IC50 chromogenic, hu glyco [12] [nM] | IC50 chromogenic (FIG. 2b) [13] [nM] | IC50 chromogenic (FIG. 2a) [14] [nM] | IC50 chromogenic (FIG. 2d) [15] [nM] | IC50 (read off the curve) [16] [nM] | IC50 (read off the curve) [17] [nM] | Binder
16.2 | 7.3 | 5.9 | 2.9 | 1.8 | 0.8 | 0.5 | 1.6 | 1.4 | 0.9 | 2.3 | 7.6 | 9.1 | 7.5 | 1.3 | – | – | – | – | – | Antibody 20, IgG1, not germlined (antibody, V domains shown, whole IgG1; also called Ab 20) VH: QVQLQQSGAEVKKPGSSVKVSCKASGGTFSSYAISWVRQAPGQGLEWMGGIIPTFGTANYAQKFQGRVTITADESTSTAYMELSSLRSEDTAVYYCAREKRQWLEGHFDYWGRGTLVTVSS VL: DIQMTQSPSTLSASVGDRVTITCRASEGIYHELAWYQQKPGKAPKLLIYRASSLASGVPSRFSGSRSGTEFTLTISSLQPDDFATYYCQQYSDYPLTFGGGTKVEIK
50.1 | 23.7 | 26.2 | 3 | – | 1 | – | 3.2 | – | – | – | – | – | – | – | 0.8 | 3.6 | 2.6 | – | – | Antibody 08, scFv (scFv, V domains shown) VH: QVQLVQSGAEVKKPGSSVKVSCKASGGTFSSYAISWVRQAPGQGLEWMGGIIPTFGTANYAQKFQGRVTITADESTSTAYMELSSLRSEDTAVYYCARERRQWLEGHFDYWGRGTLVTVSS VL: DIQMTQSPSTLSASVGDRVTITCRASEGIYHNLAWYQQKPGKAPKLLIYKASSLASGVPSRFSGSRSGTEFTLTISSLQPDDFATYYCQQYSNYPLTFGGGTKVEIK
16.1 | 10.9 | 7.8 | 26.5 | 5.4 | – | – | 4.9 | 16.1 | 3.3 | 1.2 | 6.1 | 85 | 6.8 | 2.6 | – | – | – | – | – | Antibody 27, IgG1, not germlined (antibody, V domains shown, whole IgG1; also called Ab 27) VH: QVQLQQSGAEVKKPGSSVKVSCKASGGAFSSYAISWVRQAPGQGLEWMGGIIPTFGTANYAQKFQGRVTITADESTSTAYMELSGLRSEDTAVYYCAREKRQWLEGHFDYWGRGTPVTVSS VL: DIQMTQSPSFLSASIGDRVTITCRASEGIYHNLAWYQQKPGKAPKLLIYRASSLASGAPSRFSGSGSGTDFTLTISSLQPDDFATYYCQQYSNYPLTFGGGTKLEIK
– | – | – | – | – | – | – | – | – | – | – | – | – | – | – | – | – | – | ~4 | ~2 | B1
– | – | – | – | – | – | – | – | – | – | – | – | – | – | – | – | – | – | ~2 | ~1 | B2

— patent US20120114652A1 (AbbVie / Abbott, published 2012)
